Experiment [1] has as its target apical domain of CD71 (Screen 3: 'cynomolgus apical domain of human CD71') (cynomolgus (as paragraph 454 words it; ambiguous)). As to the kind of experiment: primary ELISA.
Experiment [2] has the same target. The experiment in a line: primary ELISA, RLU ratio to HSA.

B1: CD71-binding FN3 domain SEQ ID NO: 246 (designed binder)
chain: MSLPAPKNLVVSRVTEDSARLSWTAPDAAFDSFEIAYQELSLWGEAIVLTVPGSERSYDLTGLKPGTEYYVHIGGVKGGIWSSPLSAYFTT
In the case of B1, in experiment [1], the RLU came to 6.18e+06 RLU. Also, in experiment [2], the Apical domain:HSA worked out at 609.

B2: CD71-binding FN3 domain SEQ ID NO: 234 (designed binder)
chain: MSLPAPKNLVVSRVTEDSARLSWTAPDAAFDSFFIGYLEPQPPGEAIALYVPGSERSYDLTGLKPGTEYNVTIQGVKGGFPSEPLVAHFTT
With B2, in experiment [1], the RLU amounted to 7.51e+06 RLU. Besides, the Apical domain:HSA in experiment [2] came to 798.

B3: CD71-binding FN3 domain SEQ ID NO: 243 (designed binder)
chain: MSLPAPKNLVVSRVTEDSARLSWTAPDAAFDSFFIGYLEPQPPGEAIHLYVPGSERSYDLTGLKPGTEYNVTIQGVKGGEWSAPLSAIFTT
B3 gave an RLU in experiment [1] of 4.57e+06 RLU. Besides, the Apical domain:HSA in experiment [2] is 582.

B4: CD71-binding FN3 domain SEQ ID NO: 258 (designed binder)
chain: MSLPAPKNLVVSRVTEDSARLSWTAPDAAFDSFFIGYLEPQPPGEAIVLGVPGSERSYDLTGLKPGTEYNVTIQGVKGGFPSDPLVASFTT
B4 yielded an RLU in experiment [1] of 6.79e+06 RLU. Besides, in experiment [2], the Apical domain:HSA amounted to 302.

B5: CD71-binding FN3 domain SEQ ID NO: 245 (designed binder)
chain: MSLPAPKNLVVSRVTEDSARLSWTAPDAAFDSFEISYWEHTFNGEAIILFVPGSERSYDLTGLKPGTEYYVTIGGVKGGAWSPPLWAHFTT
The molecule B5 registered an RLU in experiment [1] of 6.07e+06 RLU. Further, in experiment [2], the Apical domain:HSA was found to be 610.

B6: CD71-binding FN3 domain SEQ ID NO: 244 (designed binder)
chain: MSLPAPKNLVVSRVTEDSARLSWTAPDAAFDSFEIGYFENLYLGEAIVLTVPGSERSYDLTGLKPGTEYVVFIGGVKGGEYSIPLSAIFTT
As for B6, the RLU in experiment [1] was found to be 5.23e+06 RLU. The Apical domain:HSA in experiment [2] was 630.

B7: CD71-binding FN3 domain SEQ ID NO: 248 (designed binder)
chain: MSLPAPKNLVVSRVTEDSARLSWTAPDAAFDSFEIGYFENLYLGEAIVLTVPGSERSYDLTGLKPGTEYVVFIGGVKGGDFSPPLSAIFTT
Consider B7, for which the RLU in experiment [1] stood at 5.12e+06 RLU. Also, the Apical domain:HSA in experiment [2] stood at 550.

B8: CD71-binding FN3 domain SEQ ID NO: 257 (designed binder)
chain: MSLPAPKNLVVSHVTEDSARLSWTAPDAAFDSFEIGYWENAYKGEAIVLTVPGSERSYDLTGLKPGTEYVVFIGGVKGGVWSVPLSAIFTT
As to B8, the RLU in experiment [1] came out at 5.15e+06 RLU. The Apical domain:HSA in experiment [2] came to 687.

B9: CD71-binding FN3 domain SEQ ID NO: 240 (designed binder)
chain: MSLPAPKNLVVSRVTEDSARLSWTAPDAAFDSFHIWYFEKANEGEAIPLVVPGSERSYDLTGLKPGTEYDVDIGGVKGGAWSIPLGARFTT
The molecule B9 registered an RLU in experiment [1] of 6.83e+06 RLU. In addition, the Apical domain:HSA in experiment [2] was 71.

B10: CD71-binding FN3 domain SEQ ID NO: 241 (designed binder)
chain: MSLPAPKNLVVSRVTEDSARLSWTAPDAAFDSFMIAYDEFIVWGEAVVLTVPGSERSYDLTGLKPGTEYLVEILGVKGGTISGPLSAIFTT
Turning to B10, in experiment [1], the RLU worked out at 6.21e+06 RLU. The Apical domain:HSA in experiment [2] is 324.

B11: CD71-binding FN3 domain SEQ ID NO: 253 (designed binder)
chain: MSLPAPKNLVVSRVTEDSARLSWTAPDAAFDSFDINYWENESGGEAIALFVPGSERSYDLTGLKPGTEYWVSIGGVKGGRFSEPLYARFTT
In the case of B11, in experiment [1], the RLU was 5.78e+06 RLU. For the same molecule, the Apical domain:HSA in experiment [2] was 530.

B12: CD71-binding FN3 domain SEQ ID NO: 235 (designed binder)
chain: MSLPAPKNLVVSRVTEDSARLSWTAPDAAFDSFEIVYAEPVRFGEAIVLTVPGSERSYDLTGLKPGTEYWVQIGGVKGGNWSAPLSAIFTT
On to B12, for which the RLU in experiment [1] came to 5.63e+06 RLU. In experiment [2], the Apical domain:HSA came to 558.

B13: CD71-binding FN3 domain SEQ ID NO: 236 (designed binder)
chain: MSLPAPKNLVVSRVTEDSARLSWTEPDAAFDSFEIGYFENLYLGEAIVLTVPGSERSYDLTGLKPGTEYWVQIGGVKGGNWSAPLSAIFTT
Turning to B13, the RLU in experiment [1] was determined as 5.32e+06 RLU. In addition, the Apical domain:HSA in experiment [2] is 164.

B14: CD71-binding FN3 domain SEQ ID NO: 242 (designed binder)
chain: MSLPAPKNLVVSRVTEDSARLSWTAPDAAFDSFEIGYFENLYLGEAIVLTVPGSERSYDLTGLKPGTKYWVQIGGVKGGNWSAPLSAIFTT
In experiment [1], B14 gave an RLU of 4.84e+06 RLU. The Apical domain:HSA in experiment [2] was 493.

B15: CD71-binding FN3 domain SEQ ID NO: 237 (designed binder)
chain: MSLPAPKNLVVSRVTEDSARLSWTAPDAAFDSFEIAYFERTWFGEAIVLTVPGSERSYDLTGLKPGTEYWVQIGGVKGGDWSKPLSAIFTT
Regarding B15, the RLU in experiment [1] turned out to be 5.01e+06 RLU. The Apical domain:HSA in experiment [2] was found to be 672.

B16: CD71-binding FN3 domain SEQ ID NO: 250 (designed binder)
chain: MSLPAPKNLVVSRVTEDSARLSWTAPDAAFDSFEIGYFENLYLGEAIVLTVPGSERSYDLTGLKPGTEYWVQIGGVNGGNWSAPLSAIFTT
B16: the RLU in experiment [1] was 5.11e+06 RLU. Moreover, in experiment [2], the Apical domain:HSA is 211.

B17: CD71-binding FN3 domain SEQ ID NO: 255 (designed binder)
chain: MSLPAPKNLVVSRVTEDSARLSWTTPDAAFDSFEIAYFEIAWLGEAIVLTVPGSERSYDLTGLKPGTEYWVQIGGVKGGAYSTPLSAIFTT
Regarding B17, the RLU in experiment [1] is 5.41e+06 RLU. In experiment [2], the Apical domain:HSA was 131.

B18: CD71-binding FN3 domain SEQ ID NO: 254 (designed binder)
chain: MSLPAPKNLVVSRVTEDSARLSWTAPDAAFDSFEIGYFENLYLGEAIVLWVPGSERSYDLTGLKPGTEYWVQIGGVKGGNWSAPLSAIFTT
B18 displayed an RLU in experiment [1] of 5.11e+06 RLU. Further, in experiment [2], the Apical domain:HSA worked out at 448.

B19: CD71-binding FN3 domain SEQ ID NO: 251 (designed binder)
chain: MSLPAPKNLVVSRVTEDSARLSWTAPDAAFDSFEIGYFENLYLGEAIVLTVPGSERSYDLTGLKPGTEYWVQIGGVKGGNWSAPLVATFTT
B19 came in with an RLU in experiment [1] of 5.1e+06 RLU. In experiment [2], the Apical domain:HSA amounted to 903.

B20: CD71-binding FN3 domain SEQ ID NO: 256 (designed binder)
chain: MSLPVPKNLVVSRVTEDSARLSWTAPDAAFDSFEIGYFENLYLGEAIVLTVPGSERSYDLTGLKPGTEYWVQIGGVKGGNWSAPLSAIFTT
In experiment [1], B20 returned an RLU of 4.92e+06 RLU. Further, the Apical domain:HSA in experiment [2] was found to be 399.

B21: CD71-binding FN3 domain SEQ ID NO: 249 (designed binder)
chain: MSLPAPKNLVVSRVTEDSARLSWTAPDAAFDSFEIGYWENAYRGEAIVLTVPGSERSYDLTGLKPGTEYVVFIGGVKGGVWSVPLSAIFTT
In experiment [1], B21 came in with an RLU of 4.81e+06 RLU. In addition, the Apical domain:HSA in experiment [2] was 556.

B22: CD71-binding FN3 domain SEQ ID NO: 238 (designed binder)
chain: MSLPAPKNLVVSRVTEDSARLSWTAPDAAFDSFEIGYFENDYFGEAIVLTVPGSERSYDLTGLKPGTEYVVFIGGVKGGKWSAPLSAIFTT
B22 had an RLU in experiment [1] of 6.39e+06 RLU. Besides, in experiment [2], the Apical domain:HSA amounted to 954.

B23: CD71-binding FN3 domain SEQ ID NO: 247 (designed binder)
chain: MSLPAPKNLVVSRVTEDSARLSWTAPDAAFDSFEIGYFENLYLGEAIVLTVPGSERSYDLTGLKPGTEYWVQIGGVKGGEWSAPLSAIFTT
In the case of B23, in experiment [1], the RLU amounted to 4.45e+06 RLU. Further, the Apical domain:HSA in experiment [2] was 679.

B24: CD71-binding FN3 domain SEQ ID NO: 239 (designed binder)
chain: MSLPAPKNLVVSRVTEDSARLSWTAPDAAFDSFEIVYQENSAYGEAIVLTVPGSERSYDLTGLKPGTEYWVQIGGVKGGNWSAPLSAIFTT
B24 returned an RLU in experiment [1] of 5.4e+06 RLU. For the same molecule, in experiment [2], the Apical domain:HSA worked out at 442.

Values taken from patent US20260151494A1.
